# Reference: publication PMC3535332 (Nature Communications, 2012)
# B1: purified C5orf33 protein (His-tagged Δ62C5orf33 protein) (enzyme, human, UniProt Q4G0N4-1 63-442, looked up)
# chain: DGGFRPSRVVVVAKTTRYEFEQQRYRYAELSEEDLKQLLALKGSSYSGLLERHHIHTKNVEHIIDSLRNEGIEVRLVKRREYDEETVRWADAVIAAGGDGTMLLAASKVLDRLKPVIGVNTDPERSEGHLCLPVRYTHSFPEALQKFYRGEFRWLWRQRIRLYLEGTGINPVPVDLHEQQLSLNQHNRALNIERAHDERSEASGPQLLPVRALNEVFIGESLSSRASYYEISVDDGPWEKQKSSGLNLCTGTGSKAWSFNINRVATQAVEDVLNIAKRQGNLSLPLNRELVEKVTNEYNESLLYSPEEPKILFSIREPIANRVFSSSRQRCFSSKVCVRSRCWDACMVVDGGTSFEFNDGAIASMMINKEDELRTVLLEQ
# Key:
# purified protein [1] = substrate: NC(=O)c1ccc[n+]([C@@H]2O[C@H](COP(=O)(O)OP(=O)(O)OC[C@H]3O[C@@H](n4cnc5c(N)ncnc54)[C@H](O)[C@@H]3O)[C@@H](O)[C@H]2O)c1; test: purified protein; settings: ATP as donor, 20 mM MgCl2, 100 mM Tris-HCl pH 8.0, 37 °C
# purified protein [2] = substrate: Nc1ncnc2c1ncn2[C@@H]1O[C@H](COP(=O)(O)OP(=O)(O)OP(=O)(O)O)[C@@H](O)[C@H]1O; test: purified protein; settings: 5 mM NAD+, 40 mM MgCl2, 100 mM Tris-HCl pH 8.0, 37 °C
# SEC = target: the molecule itself; test: SEC
protein,measurement,setting,value
B1,Km,purified protein [1],22 ± 1 µM
same,Km,purified protein [2],1700 ± 300 µM
same,stoichiometry N,SEC,2
